How the values were obtained:
[1] = target: N-terminally Avi-tagged Lotus SYMRK kinase 4A (Lotus japonicus); experiment: BLI
[2] = target: N-terminally Avi-tagged Lotus SYMRK kinase 4D (Lotus japonicus); experiment: BLI

KD1 (2:1 heterogenous ligand fit) [1]: 2.2 µM | KD2 (2:1 heterogenous ligand fit) [1]: 6.4 µM | KD1 (2:1 heterogenous ligand fit) [2]: 452 nM | KD2 (2:1 heterogenous ligand fit) [2]: 1 µM
Substance: Lotus japonicus Early Phosphorylated Protein 1a (EPP1a) WT, purified (natural protein)

— article doi:10.1101/2025.09.29.679184
